# Assay results from a protein production outcome set (Wang et al. 2014).
# Experiment: label from the status in PepcDB records
row,Sequence,protein production
1,MSDDNSHSSDTVNSKKGFFSLLLSQLFHGEPKNRDELLALIRDSGQNELIDEDTRDMLEGVMDIADQRVRDIMIPRSQMITLKRNQTLDECLDVIIESAHSRFPVISEDKDHIEGILMAKDLLPFMRSDAEAFSMDKVLRTAVVVPESKRVDRMLKEFRSQRYHMAIVIDEFGGVSGLVTIEDILELIVGEIEDEYDEEDDIDFRQLSRHTWTIRALASIEDFNDAFGTHFSDEEVDTIGGLVMQAFGHLPARGETIDIDGYQFKVAMADSRRIIQVHVRIPDDSPQPKLDE,not failed
2,MNTQEPAGLFTAVYEGDENTVVRLLRAGTAADARDEDGQTALYLAAVSNEPGIVRLLLAAGADPDRLSADADSPLCGAACGGHAEVVRALLAAGATADLEEEFGFRALTWAVQRGQVEILTELLAAGAHPDRPGPTGEAPLVAAARRGSPGCVRALLAHGAGARSPALDEARRWPALDVEAELRAGLEQMYGSGHEMVTHRIPEDGGITVEVQLRTGERTMAGNDQQTGHAAIITLLEAALGIATPVPELADRALRCGDPANDDWTEAVSVLVRRAGGETFTAATAWSRSPDPLRRALGTEILRKLGR,failed
3,RYGGDSTMIEMAFNKILIYAFGQFSAYSVWFDNNYLNIVDTIPGYGVFTGVVSKIFDFDRVSGFYDSFTYISNEDYTNVFTLSR,failed
4,MSLDSPLYGRSFADDKMRELFSAQSFISRCVETEVALARAQARLGIIPEDAAAGITAAARTFAPEMERLRDDTEIVGYPILPLVEQLSAHAGEAGKYLHWGATTQDIMDTATVLQIRDGLALISRRIESVRKALAALARNHRDTPMAGRTHLQHALPVTFGYKAAVWLSAFDRHAARLEEISPRVLVVEFSGASGTLASLGTRGLDVQRELARELNLGVPSITWHSARDAVAETVQFLALVSGSLGKLAMDISIMMTTELGEVAEPFVRHRGASSTMPQKQNPVSCELILAGARIVRNHATSMLDAMIHDFERATGPWHLEWSAVPEGFAVASGILYQAEFMLGGLQVFPDRMRENLDHSRGLIVAEAVMMALAPHTGRKEAHDIVYLGCRRAVEDKTGLFEVLRTMPEVAKPLGEEALRDLTDPRNYLGSAGAMVDNVLGGREGHHHHHH,not failed
5,MNMQKLRIELGEETNDELYDLLLLADPSKDIVDEYLERGECYTAWAGDELAGVYVLLKTRPQTVEIVNIAVKESLQKKGFGKQLVLDAIEKAKKLGADTIEIGTGNSSIHQLSLYQKCGFRIQAIDHDFFLRHYDEDIFENGIQCRDMVRLYLDLLEHHHHHH,not failed
6,MDESKKISLGQFFTPTHIVKYMIGLMTKNKNASILEPSSGNGVFLDSLIQLGYTNLTSYEIDGDIISHPFVINSSFITSYDKPQYDSIIGNPPYVRWKNLSELQKKELKDNSIWKMYCNSLCDYFYIFIIKSILQLKVGGELIFICPDYFFSTKNAEGLRKFLINNGSFEKIILFNESKVFHGVSSSVVIFKYIKGKNIDNINIINIDSKSPIKSEDIE,failed
7,MAAKTMDFAGPAVSTGLGGLGPTRVSGAALMATLLFLGAPLLFAGNMLAARMMQGVLPPFTLASARWALAALVLLPFVRRELFGQRRAAPGRWRALVLPAVLGGALSVGPQYWAAHFTSAGNIALVFAMTPLLVALLDRLAGGARLGAPALAGMGLAIAGIATASFQGSLARLLAFQINPGDLLAGLAALAWAGYTVATRRPRAGLSGLALLWGVAAGGALTLAPAAAVEWLVLGVPSLSREAVLGVAFLAIVPSIGAYLAYGRLIGLVGPVVAGTSMYLIPLYALALGAMVLGEALGRYHLAAAALVIGGVALSRWRGAAKVCG,failed
8,MFSGKRLKKRRITLGYSQSELADKLHINRSSYFNWENEKTKPNQSNLKQLAILLDVPETYFESEYKIVNTYLQLSLQNQEKVEKYAEELLQTQKVHEKIVPLFAVEVLSEIQLSAGPGEGLYDEFETETVYSEDEYTGFDIATWISGNSMEPVYKDGEVALIRSTGFDHDGAVYALNWNGSLYIKKLYREEDGFRMVSINPDVAERFIPFEDEIRIVGKIVGHFMPVIGGLEHHHHHH,not failed
9,MRAFDAYKILDEQEAGSLIDLIAPCMDDYLYIIDLKNDTLRISQSAVERFMLPDKFMNDATKHLRTLVYEKDRKLLENHKRKIYDGKEKRYNVLCRLMNSKNLPVWINCRGEVINDEAGKPRYIIGCMNETGTRQRADNISGLLGEKEMASYLYSQPKEKLSGYFIQIGIDDFGIINNVQGQIYGNYILKRVAECIAECLSSGQRIYHLVTDKYMLVDMLSKSQDDVVQLFKRIGEKIDEFIVDENYKSIFSISAGVTDISTLAEDAIECRKKSDFSLKCAKKRGGGSLYFFEEEDYKVSLRKNTILSALRSATVNDFEGFEVYYQPILDSADRIIGAEALLRFFMHSDEGDEMISPVEFIPLLEKSRLIIPVGEFVLNEAAKMCREMQQYIADFRVNINVSYIQIMRGSMANKILTAIRANNLRPESICIEMTESGFMDMTPCFCSFRKKLDENNIQFIIDDFGTGYSNLRYISEMNPDYVKIDKDFTARAMSSEKDYELFRKIIEMVHSINIKICIEGIEKEEWACAMKEIHVDYMQGYLYGRPCEKGVFLNNYGI,failed
10,MKICAVVVTYNRKDLLVECLEALRRQTGPLDAIYIIDNASTDGTPHLLMEGGYIDDPDGSVKNLPDHHGRSLKIVYVRLNENTGGAGGFYKGVRRAFHDEYDWIWLMDDDVEPEEYTLEKLLKASERIPEDVSAVAPVRFFQGSLFISETKTFNFRNPLKHFTYDFITDDDLKEEYFKISAISFEGLLIKREAIERIGFPDKSLFIIADDTDYAIRLRDYGPIYMVSGARLIKKVAAEPDFNWKGFYHLRNVIYLDRKYGENILVRYLRPLRTLIIVTYQCLKYKPSGFKYLLKAFWEGYTLKRGKTVKPGEFLEHHHHHH,not failed
11,MLILAIPGYIYYHQQQEQAANQQLGQILPVYEQGNFQQALDGTGDRAGLLAIADDYGGTDAGNLATFYAANALYQRDEYDRALTYYQRFEKEKDFIGASAYAAQAAIQETRGSFERAGGLYEQAASQYQNKLTAPRYLLNAGQAYEEAGQYEAAIGVYERIQEEYPDSEQASNAERYLARAKVHQGSTSSS,failed
12,MAENKLGRDIPRKYANQYGVFEGELAHIKSYKESSRQVKPVKPSDDKLLSSIHEAIEKTRLKDGMTISFHHHFREGDYVMNMVLDEIAKMGIKDISIAPSSIANVHEPLIDHIKNGVVTNITSSGLRDKVGAAISEGIMENPVIIRSHGGRARAIATDDIHIDVAFLGAPSSDAYGNANGTRGKTTCGSLGYAMIDAKYADQVVIVTDTLVPYPNTPISIPQTDVDYIVVVDAIGDPEGIAKGATRYTKNPKELLIAEYAAKVITSSPYYKEGFSFQTGTGGASLAVTRFMREQMIKDDIKANFALGGITNAMVELLEEGLVDKILDVQDFDHPSAVSLDRNAEKHYEIDANMYASPLSKGSVINQLDICVLSALEVDTNFNVNVMTGSDGVIRGASGGHCDTAFAAKMSLVISPLVRGRIPTFVDKVNTVITPGTSVDVVVTEVGIAINPNRPDLIEYFKDLKVPQLTIEELKEKAYAIVGNPQPIQYGDKIVALIEYRDGSLIDVVRNVLEHHHHHH,not failed
13,MTQGTARAQQNNIPVGIALMLAATVVFALQDGISRHLASSYNTYMVVMIRYWFFAAFVIALAARSRGGLRAATRTAQPGLQIFRGLLLASEICVAVFAFTVLGLIESMAVFICYPLLVAALSGPVLGEKVGWRRWAAIGVGLVGVLIILQPGMGVFNPWAVVPLISALMFALYGLLTRYAARQDSTATSFFWTGVTGAVAMTAVGLWFWEPMSAPDWRWMALLCVSGALGHWLLIKCYEMAEASAVQPFAYFHLMWTAILGITVFGETLRSAVIIGAALIVAAGLFTLWRERAQSRSR,failed
14,KKKVLIYGAGSAGLQLANMLRQGKEFHPIAFIDDDRKKHKTTMQGITIYRPKYLERLIKKHCISTVLLAVPSASQVQKKVIIESLAKLHVEVLTIPNLDDLVNGKLSIGQLKEVSIDDLLGRVAVTPQAELMEANIKD,not failed
15,MNKALWYVVLPALLVTVLAQRFGHLTVNFPLKSVFGGAAPAEAALHRRIALPSGFSLTVYAADLPGARMLRFTRTGDLLVSQPNAGAIVLLEKDADGDGRPDGRRQLLTGLSRPHGLDLRDGWLYVAETYGVVRVRYDAAQRQISGAPEMVVSGIPGGGNHWSRTLKFGPDGGMYVSVGSSCNVCIEDDPLRATLLRFEPDGTKREIYATGLRNTVGFDWRPGSRELYGTDNGRDLLGDDFPPCELNRIEKGGFYGWPYANGNRVPDPDYGRGHEADIRRSLPPVHEFRAHVAPLGMVFLKGGGLPQDYRGAALVALHGSWNRSKKQGYEVVSLHFGADGRIAERPFMTGFNVDEDVIGRPVDVAEGPDGAIYVSDDYAGAIYRVLYRPPVTASHD,failed
16,MFPYFESVATASTEFHAIEPDPHMRRQAAEQANTQATPIHIESSPAEALPYYEDTFDVVITSMVFCTIPDIESAMSEITRVLKPGGELRFFEHVIDDGWRARLQSALAPLWKRLAGGCHLTRQTGTRLVADQSFDVVEIERLNLGITPIRPFVRGRLRKRSVSSTRLEHHHHHH,failed
17,MVPDPFRVGPWTSVREAARLMAQRRVGSLVVVEDGQVLGVVTSRDLRGAHPNRLVVDVLKGPPVAISPEASLLEAKRLMEAKGLERLLVMRDRKLLGILTQGTLAFALGQHFDPLTGLPRADLLRHHLESLLAQGKDPTLLFVDLDDFGRLNKENGHPFGDRVLKTLGQRLKGFAQDLGGEVYRYGGDEFALVFPHPRQALLPALPSLLSPLEVEGKRVGFSVGVAGGRRRQRRVSANPSATADDLLKLASLASTHAKRQGSGWAPAEALKAKEGAPEGVSSPKEPQSAWGDNRRAARGGGGPRSGGRGSGPTGP,failed
18,MSLSINSREVLAEKVKNAVNNQPVTDMHTHLFSPNFGEILLWDIDELLTYHYLVAEVMRWTDVSIEAFWAMSKREQADLIWEELFIKRSPVSEACRGVLTCLQGLGLDPATRDLQVYREYFAKKTSEEQVDTVLQLANVSDVVMTNDPFDDNERISWLEGKQPDSRFHAALRLDPLLNEYEQTKHRLRDWGYKVNDEWNEGSIQEVKRFLTDWIERMDPVYMAVSLPPTFSFPEESNRGRIIRDCLLPVAEKHNIPFAMMIGVKKRVHPALGDAGDFVGKASMDGVEHLLREYPNNKFLVTMLSRENQHELVVLARKFSNLMIFGCWWFMNNPEIINEMTRMRMEMLGTSFIPQHSDARVLEQLIYKWHHSKSIIAEVLIDKYDDILQAGWEVTEEEIKRDVADLFSRNFWRFVGRNDHVTSVKVEQQTEGHHHHHH,not failed
19,MTWLIISGLVVGALLGFVMQRTRFCLAGGFRDMYIQKSNKMFYALLIAISVQSIGLLLLTSTRLVEIPESTYPIIGTVIGSFIFGLGIIMAGGCATGTWYRAGEGLIGSWMALIAYAFTSAATKFGLLLPLMNGLNKPTNVNTSMSQTTGIPTWVFVIVLIVITLFFVVKTLRKPKFAVPKLKQKFTGIRHYLFEKKYHPFVAAIAVGLIALLAWPVSESTGRMYGLGITTPSANLVQFFVTGDLKLLDWGVFLVLGIFFGSYIAAKGAKEFKWRLPDKKTIRNSIIGGVLMGFGASVAGGCSIGNGLVETATMSWKGWIALASMILGAWTMSYFVFIRPMKKAQSQTSNTKVSSQTQTS,failed
20,MLMLEREKLARLIKKRSLKVADEPVFKLSSGKLSRYYVDLKQITFDPEGDYLIGKAMYELVKEFNPDACGGLTLGADPIAYAIAFVSLMDSNPIKPFVVRKEPKGHGMKRQIEGLLNPGERVAVLEDVVTTGSSALKAVKACREYGLEVIGVFAVVDREEGGRENIEKEGIPLYSLFKLSELL,not failed
21,KVWKPGDECFALYWEDNKFYRAEVEALHSSGMTAVVKFTDYGNYEEVLLSNIKPVQTEAWVRDPN,not failed
22,LENCVFCKIIKRELPSTIYYEDERVIAIKDINPAAPVHVLIIPKEHIANVKEINESNAQILIDIHKAANKVAEDLGIAEKGYRLITNCGVAAGQTVFHLHYHLLGGVDMGPKIL,not failed
